Source: publication PMC3981736, “The Domain-Specific and Temperature-Dependent Protein Misfolding Phenotype of Variant Medium-Chain acyl-CoA Dehydrogenase” (PLoS ONE, 2014)

Target: the molecule itself
Test: SEC; re-chromatography after Factor Xa cleavage of the MBP tag; HiLoad 16/600 Superdex 200, 20 mM HEPES pH 7.0, 200 mM NaCl, 4 °C; tetrameric fraction pooled

Row | Protein | stoichiometry N
1 | medium-chain acyl-CoA dehydrogenase (MCAD) wild-type (enzyme, human, UniProt P11310-1 26-421, looked up, medium-chain acyl-CoA dehydrogenase (MCAD), human, cDNA of the ACADM gene cloned into pMALc2X; also called WT; wild-type MCAD; source: E. coli BL21-CodonPlus, purified (MBPTrap, SEC, Factor Xa cleavage, SEC); not shown: MBP, N-terminal, cleaved) KANRQREPGLGFSFEFTEQQKEFQATARKFAREEIIPVAAEYDKTGEYPVPLIRRAWELGLMNTHIPENCGGLGLGTFDACLISEELAYGCTGVQTAIEGNSLGQMPIIIAGNDQQKKKYLGRMTEEPLMCAYCVTEPGAGSDVAGIKTKAEKKGDEYIINGQKMWITNGGKANWYFLLARSDPDPKAPANKAFTGFIVEADTPGIQIGRKELNMGQRCSDTRGIVFEDVKVPKENVLIGDGAGFKVAMGAFDKTRPVVAAGAVGLAQRALDEATKYALERKTFGKLLVEHQAISFMLAEMAMKVELARMSYQRAAWEVDSGRRNTYYASIAKAFAGDIANQLATDAVQILGGNGFNTEYPVEKLMRDAKIYQIYEGTSQIQRLIVAREHIDKYKN | 4
2 | MCAD p.Ala52Val (enzyme, human, UniProt P11310-1 26-421, looked up, medium-chain acyl-CoA dehydrogenase (MCAD), human, ACADM cDNA in pMALc2X with a missense mutation found in newborn screening; number counts on the precursor (initiator methionine +1); also called p.Ala27Val; A27V; source: E. coli DH5α co-transformed with pGroESL, purified (MBPTrap, SEC, Factor Xa cleavage, SEC); not shown: MBP, N-terminal, cleaved) KANRQREPGLGFSFEFTEQQKEFQATVRKFAREEIIPVAAEYDKTGEYPVPLIRRAWELGLMNTHIPENCGGLGLGTFDACLISEELAYGCTGVQTAIEGNSLGQMPIIIAGNDQQKKKYLGRMTEEPLMCAYCVTEPGAGSDVAGIKTKAEKKGDEYIINGQKMWITNGGKANWYFLLARSDPDPKAPANKAFTGFIVEADTPGIQIGRKELNMGQRCSDTRGIVFEDVKVPKENVLIGDGAGFKVAMGAFDKTRPVVAAGAVGLAQRALDEATKYALERKTFGKLLVEHQAISFMLAEMAMKVELARMSYQRAAWEVDSGRRNTYYASIAKAFAGDIANQLATDAVQILGGNGFNTEYPVEKLMRDAKIYQIYEGTSQIQRLIVAREHIDKYKN | 4
3 | MCAD p.Tyr158His (enzyme, human, UniProt P11310-1 26-421, looked up, medium-chain acyl-CoA dehydrogenase (MCAD), human, ACADM cDNA in pMALc2X with a missense mutation found in newborn screening; number counts on the precursor (initiator methionine +1); also called Y158H; p.Tyr133His; source: E. coli DH5α co-transformed with pGroESL, purified (MBPTrap, SEC, Factor Xa cleavage, SEC); not shown: MBP, N-terminal, cleaved) KANRQREPGLGFSFEFTEQQKEFQATARKFAREEIIPVAAEYDKTGEYPVPLIRRAWELGLMNTHIPENCGGLGLGTFDACLISEELAYGCTGVQTAIEGNSLGQMPIIIAGNDQQKKKYLGRMTEEPLMCAHCVTEPGAGSDVAGIKTKAEKKGDEYIINGQKMWITNGGKANWYFLLARSDPDPKAPANKAFTGFIVEADTPGIQIGRKELNMGQRCSDTRGIVFEDVKVPKENVLIGDGAGFKVAMGAFDKTRPVVAAGAVGLAQRALDEATKYALERKTFGKLLVEHQAISFMLAEMAMKVELARMSYQRAAWEVDSGRRNTYYASIAKAFAGDIANQLATDAVQILGGNGFNTEYPVEKLMRDAKIYQIYEGTSQIQRLIVAREHIDKYKN | 4
4 | MCAD p.Tyr67His (enzyme, human, UniProt P11310-1 26-421, looked up, medium-chain acyl-CoA dehydrogenase (MCAD), human, ACADM cDNA in pMALc2X with a missense mutation found in newborn screening; number counts on the precursor (initiator methionine +1); also called Y67H; p.Tyr42His; source: E. coli DH5α co-transformed with pGroESL, purified (MBPTrap, SEC, Factor Xa cleavage, SEC); not shown: MBP, N-terminal, cleaved) KANRQREPGLGFSFEFTEQQKEFQATARKFAREEIIPVAAEHDKTGEYPVPLIRRAWELGLMNTHIPENCGGLGLGTFDACLISEELAYGCTGVQTAIEGNSLGQMPIIIAGNDQQKKKYLGRMTEEPLMCAYCVTEPGAGSDVAGIKTKAEKKGDEYIINGQKMWITNGGKANWYFLLARSDPDPKAPANKAFTGFIVEADTPGIQIGRKELNMGQRCSDTRGIVFEDVKVPKENVLIGDGAGFKVAMGAFDKTRPVVAAGAVGLAQRALDEATKYALERKTFGKLLVEHQAISFMLAEMAMKVELARMSYQRAAWEVDSGRRNTYYASIAKAFAGDIANQLATDAVQILGGNGFNTEYPVEKLMRDAKIYQIYEGTSQIQRLIVAREHIDKYKN | 4
5 | MCAD p.Arg413Ser (enzyme, human, UniProt P11310-1 26-421, looked up, medium-chain acyl-CoA dehydrogenase (MCAD), human, ACADM cDNA in pMALc2X with a missense mutation found in newborn screening; number counts on the precursor (initiator methionine +1); also called R413S; p.Arg388Ser; source: E. coli DH5α co-transformed with pGroESL, purified (MBPTrap, SEC, Factor Xa cleavage, SEC); not shown: MBP, N-terminal, cleaved) KANRQREPGLGFSFEFTEQQKEFQATARKFAREEIIPVAAEYDKTGEYPVPLIRRAWELGLMNTHIPENCGGLGLGTFDACLISEELAYGCTGVQTAIEGNSLGQMPIIIAGNDQQKKKYLGRMTEEPLMCAYCVTEPGAGSDVAGIKTKAEKKGDEYIINGQKMWITNGGKANWYFLLARSDPDPKAPANKAFTGFIVEADTPGIQIGRKELNMGQRCSDTRGIVFEDVKVPKENVLIGDGAGFKVAMGAFDKTRPVVAAGAVGLAQRALDEATKYALERKTFGKLLVEHQAISFMLAEMAMKVELARMSYQRAAWEVDSGRRNTYYASIAKAFAGDIANQLATDAVQILGGNGFNTEYPVEKLMRDAKIYQIYEGTSQIQRLIVASEHIDKYKN | 4
6 | MCAD p.Asp266Gly (enzyme, human, UniProt P11310-1 26-421, looked up, medium-chain acyl-CoA dehydrogenase (MCAD), human, ACADM cDNA in pMALc2X with a missense mutation found in newborn screening; number counts on the precursor (initiator methionine +1); also called D266G; p.Asp241Gly; source: E. coli DH5α co-transformed with pGroESL, purified (MBPTrap, SEC, Factor Xa cleavage, SEC); not shown: MBP, N-terminal, cleaved) KANRQREPGLGFSFEFTEQQKEFQATARKFAREEIIPVAAEYDKTGEYPVPLIRRAWELGLMNTHIPENCGGLGLGTFDACLISEELAYGCTGVQTAIEGNSLGQMPIIIAGNDQQKKKYLGRMTEEPLMCAYCVTEPGAGSDVAGIKTKAEKKGDEYIINGQKMWITNGGKANWYFLLARSDPDPKAPANKAFTGFIVEADTPGIQIGRKELNMGQRCSDTRGIVFEDVKVPKENVLIGGGAGFKVAMGAFDKTRPVVAAGAVGLAQRALDEATKYALERKTFGKLLVEHQAISFMLAEMAMKVELARMSYQRAAWEVDSGRRNTYYASIAKAFAGDIANQLATDAVQILGGNGFNTEYPVEKLMRDAKIYQIYEGTSQIQRLIVAREHIDKYKN | 4
7 | MCAD p.Arg334Lys (enzyme, human, UniProt P11310-1 26-421, looked up, medium-chain acyl-CoA dehydrogenase (MCAD), human, ACADM cDNA in pMALc2X with a missense mutation found in newborn screening; number counts on the precursor (initiator methionine +1); also called R334K; p.Arg309Lys; source: E. coli DH5α co-transformed with pGroESL, purified (MBPTrap, SEC, Factor Xa cleavage, SEC); not shown: MBP, N-terminal, cleaved) KANRQREPGLGFSFEFTEQQKEFQATARKFAREEIIPVAAEYDKTGEYPVPLIRRAWELGLMNTHIPENCGGLGLGTFDACLISEELAYGCTGVQTAIEGNSLGQMPIIIAGNDQQKKKYLGRMTEEPLMCAYCVTEPGAGSDVAGIKTKAEKKGDEYIINGQKMWITNGGKANWYFLLARSDPDPKAPANKAFTGFIVEADTPGIQIGRKELNMGQRCSDTRGIVFEDVKVPKENVLIGDGAGFKVAMGAFDKTRPVVAAGAVGLAQRALDEATKYALERKTFGKLLVEHQAISFMLAEMAMKVELAKMSYQRAAWEVDSGRRNTYYASIAKAFAGDIANQLATDAVQILGGNGFNTEYPVEKLMRDAKIYQIYEGTSQIQRLIVAREHIDKYKN | 4
8 | MCAD p.Arg206Cys (enzyme, human, UniProt P11310-1 26-421, looked up, medium-chain acyl-CoA dehydrogenase (MCAD), human, ACADM cDNA in pMALc2X with a missense mutation found in newborn screening; number counts on the precursor (initiator methionine +1); also called R206C; p.Arg181Cys; source: E. coli DH5α co-transformed with pGroESL, purified (MBPTrap, SEC, Factor Xa cleavage, SEC); not shown: MBP, N-terminal, cleaved) KANRQREPGLGFSFEFTEQQKEFQATARKFAREEIIPVAAEYDKTGEYPVPLIRRAWELGLMNTHIPENCGGLGLGTFDACLISEELAYGCTGVQTAIEGNSLGQMPIIIAGNDQQKKKYLGRMTEEPLMCAYCVTEPGAGSDVAGIKTKAEKKGDEYIINGQKMWITNGGKANWYFLLACSDPDPKAPANKAFTGFIVEADTPGIQIGRKELNMGQRCSDTRGIVFEDVKVPKENVLIGDGAGFKVAMGAFDKTRPVVAAGAVGLAQRALDEATKYALERKTFGKLLVEHQAISFMLAEMAMKVELARMSYQRAAWEVDSGRRNTYYASIAKAFAGDIANQLATDAVQILGGNGFNTEYPVEKLMRDAKIYQIYEGTSQIQRLIVAREHIDKYKN | 4
9 | MCAD p.Lys329Glu (enzyme, human, UniProt P11310-1 26-421, looked up, medium-chain acyl-CoA dehydrogenase (MCAD), human, ACADM cDNA in pMALc2X with a missense mutation found in patients; number counts on the precursor (initiator methionine +1); also called K329E; p.Lys304Glu; source: E. coli DH5α co-transformed with pGroESL, purified (MBPTrap, SEC, Factor Xa cleavage, SEC); not shown: MBP, N-terminal, cleaved) KANRQREPGLGFSFEFTEQQKEFQATARKFAREEIIPVAAEYDKTGEYPVPLIRRAWELGLMNTHIPENCGGLGLGTFDACLISEELAYGCTGVQTAIEGNSLGQMPIIIAGNDQQKKKYLGRMTEEPLMCAYCVTEPGAGSDVAGIKTKAEKKGDEYIINGQKMWITNGGKANWYFLLARSDPDPKAPANKAFTGFIVEADTPGIQIGRKELNMGQRCSDTRGIVFEDVKVPKENVLIGDGAGFKVAMGAFDKTRPVVAAGAVGLAQRALDEATKYALERKTFGKLLVEHQAISFMLAEMAMEVELARMSYQRAAWEVDSGRRNTYYASIAKAFAGDIANQLATDAVQILGGNGFNTEYPVEKLMRDAKIYQIYEGTSQIQRLIVAREHIDKYKN | 4
